Values quoted from earlier work in article PMC4934914.
One block for each substance: values may come before it.

Assays:
[1] = target: BsHemH (Bacillus subtilis) (UniProt P32396)
[2] = target: BsSufU (Bacillus subtilis) (UniProt O32163)
IscS (Escherichia coli) = IscS (Escherichia coli) (UniProt P0A6B7)
Sequence of IscS (Escherichia coli) (P0A6B7 whole entry): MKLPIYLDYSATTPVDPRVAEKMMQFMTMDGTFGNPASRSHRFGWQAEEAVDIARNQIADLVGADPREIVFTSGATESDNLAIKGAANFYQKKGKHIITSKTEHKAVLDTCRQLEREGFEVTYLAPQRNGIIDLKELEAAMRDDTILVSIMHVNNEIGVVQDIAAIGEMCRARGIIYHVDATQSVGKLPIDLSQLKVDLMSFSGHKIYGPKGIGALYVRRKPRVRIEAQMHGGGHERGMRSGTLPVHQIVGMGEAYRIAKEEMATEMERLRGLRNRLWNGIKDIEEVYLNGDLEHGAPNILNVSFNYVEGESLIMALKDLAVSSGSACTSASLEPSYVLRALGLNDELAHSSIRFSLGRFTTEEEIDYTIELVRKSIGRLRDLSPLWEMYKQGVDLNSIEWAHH

Sequence of CyaY (P27838 whole entry): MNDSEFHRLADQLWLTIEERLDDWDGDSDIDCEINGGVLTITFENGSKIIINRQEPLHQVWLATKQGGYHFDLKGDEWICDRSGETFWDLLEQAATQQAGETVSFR
Sequence of BsSufS (O32164 whole entry): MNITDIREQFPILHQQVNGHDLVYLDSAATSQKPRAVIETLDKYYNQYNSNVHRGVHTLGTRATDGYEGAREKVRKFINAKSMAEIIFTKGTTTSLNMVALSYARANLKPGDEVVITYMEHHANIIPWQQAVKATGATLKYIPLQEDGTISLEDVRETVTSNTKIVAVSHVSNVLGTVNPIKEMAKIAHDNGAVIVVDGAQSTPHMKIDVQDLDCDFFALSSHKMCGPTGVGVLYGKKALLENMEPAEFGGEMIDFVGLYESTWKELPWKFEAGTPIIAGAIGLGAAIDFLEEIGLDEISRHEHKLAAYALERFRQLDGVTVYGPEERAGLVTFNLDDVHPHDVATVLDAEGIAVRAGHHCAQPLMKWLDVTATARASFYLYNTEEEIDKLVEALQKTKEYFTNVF
Sequence of BsSufU (Bacillus subtilis) (O32163 whole entry): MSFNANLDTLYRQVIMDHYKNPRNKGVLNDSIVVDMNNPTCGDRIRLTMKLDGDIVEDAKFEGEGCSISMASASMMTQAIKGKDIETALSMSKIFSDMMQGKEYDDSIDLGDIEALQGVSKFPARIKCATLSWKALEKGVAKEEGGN
Sequence of BsHemH (Bacillus subtilis) (P32396 whole entry): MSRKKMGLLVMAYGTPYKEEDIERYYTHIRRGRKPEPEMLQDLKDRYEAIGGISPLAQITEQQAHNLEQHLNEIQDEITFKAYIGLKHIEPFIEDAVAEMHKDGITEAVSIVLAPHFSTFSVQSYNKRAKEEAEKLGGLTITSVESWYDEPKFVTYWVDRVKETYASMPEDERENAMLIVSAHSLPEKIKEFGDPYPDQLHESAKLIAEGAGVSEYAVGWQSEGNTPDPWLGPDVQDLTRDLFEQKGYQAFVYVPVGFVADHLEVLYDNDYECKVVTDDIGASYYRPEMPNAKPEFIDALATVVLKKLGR
Sequence of BsFra (frataxin) (Q797E6 whole entry): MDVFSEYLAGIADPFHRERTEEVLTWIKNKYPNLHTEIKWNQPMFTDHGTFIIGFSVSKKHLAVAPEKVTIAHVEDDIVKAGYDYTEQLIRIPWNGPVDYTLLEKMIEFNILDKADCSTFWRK

Substance: BsFra (frataxin) (from UniProt Q797E6)
Kd [1]: 1630 nM

Kd [2]: 2630 nM
Substance: BsSufS (from UniProt O32164)

Substance: CyaY (from UniProt P27838)
Kd (IscS (Escherichia coli)): 18500 nM
